Assay results as given in the Human Domainome abundance scans (Beltran et al. 2025).
± gives the uncertainty stated by the source.

B1: RUN and FYVE domain-containing protein 1, residues 639 to 698; numbered along this chain, Q96T51 (parent)
chain: WLKDDEATHCRQCEKEFSISRRKHHCRNCGHIFCNTCSSNELALPSYPKPVRVCDSCHTL

Variants of: B1
Test: abundance fitness (aPCA) (normalised: wild type 0, dead -1); higher = more abundant; growth selection in yeast, the domain comes from the species named
Settings: Homo sapiens

With WLKDDEATHCRQCEKEFSISRIKHHCRNCGHIFCNTCSSNELALPSYPKPVRVCDSCHTL as the variant, how does the abundance fitness read?
Its abundance fitness is -0.1 ± 0.065.

With WLKDDEATHCRQCEKEFSISREKHHCRNCGHIFCNTCSSNELALPSYPKPVRVCDSCHTL as the variant, how does the abundance fitness read?
The abundance fitness was 0.014 ± 0.045.

For WLKDDEATHCRQCEKEFSISRPKHHCRNCGHIFCNTCSSNELALPSYPKPVRVCDSCHTL, which abundance fitness is on record?
Its abundance fitness is -0.303 ± 0.054.

With WLKDDEATHCRQCEKEFSISRVKHHCRNCGHIFCNTCSSNELALPSYPKPVRVCDSCHTL as the variant, how does the abundance fitness read?
Its abundance fitness is 0 ± 0.034.

With WLKDDEATHCRQCEKEFSISRDKHHCRNCGHIFCNTCSSNELALPSYPKPVRVCDSCHTL as the variant, how does the abundance fitness read?
The abundance fitness was -0.141 ± 0.08.

For WLKDDEATHCRQCEKEFSISRWKHHCRNCGHIFCNTCSSNELALPSYPKPVRVCDSCHTL, which abundance fitness is on record?
Its abundance fitness is -0.18 ± 0.038.

Which abundance fitness does the source give for WLKDDEATHCRQCEKEFSISRQKHHCRNCGHIFCNTCSSNELALPSYPKPVRVCDSCHTL here?
Its abundance fitness is -0.1 ± 0.048.

With WLKDDEATHCRQCEKEFSISRTKHHCRNCGHIFCNTCSSNELALPSYPKPVRVCDSCHTL as the variant, how does the abundance fitness read?
The abundance fitness was -0.066 ± 0.045.

Which abundance fitness does the source give for WLKDDEATHCRQCEKEFSISRNKHHCRNCGHIFCNTCSSNELALPSYPKPVRVCDSCHTL here?
The abundance fitness was -0.24 ± 0.1.

Which abundance fitness does the source give for WLKDDEATHCRQCEKEFSISRHKHHCRNCGHIFCNTCSSNELALPSYPKPVRVCDSCHTL here?
The abundance fitness was -0.854 ± 0.14.

For WLKDDEATHCRQCEKEFSISRYKHHCRNCGHIFCNTCSSNELALPSYPKPVRVCDSCHTL, which abundance fitness is on record?
The abundance fitness was -0.356 ± 0.077.

With WLKDDEATHCRQCEKEFSISRLKHHCRNCGHIFCNTCSSNELALPSYPKPVRVCDSCHTL as the variant, how does the abundance fitness read?
The abundance fitness was -0.098 ± 0.031.

With WLKDDEATHCRQCEKEFSISRCKHHCRNCGHIFCNTCSSNELALPSYPKPVRVCDSCHTL as the variant, how does the abundance fitness read?
The abundance fitness was -0.494 ± 0.071.

With WLKDDEATHCRQCEKEFSISRSKHHCRNCGHIFCNTCSSNELALPSYPKPVRVCDSCHTL as the variant, how does the abundance fitness read?
The abundance fitness was -0.32 ± 0.04.

Which abundance fitness does the source give for WLKDDEATHCRQCEKEFSISRAKHHCRNCGHIFCNTCSSNELALPSYPKPVRVCDSCHTL here?
The abundance fitness was -0.102 ± 0.045.

Which abundance fitness does the source give for WLKDDEATHCRQCEKEFSISRMKHHCRNCGHIFCNTCSSNELALPSYPKPVRVCDSCHTL here?
Its abundance fitness is 0.109 ± 0.047.

Which abundance fitness does the source give for WLKDDEATHCRQCEKEFSISRRKHDCRNCGHIFCNTCSSNELALPSYPKPVRVCDSCHTL here?
The abundance fitness was -0.176 ± 0.058.

Which abundance fitness does the source give for WLKDDEATHCRQCEKEFSISRRKHQCRNCGHIFCNTCSSNELALPSYPKPVRVCDSCHTL here?
The abundance fitness was 0.169 ± 0.046.

Which abundance fitness does the source give for WLKDDEATHCRQCEKEFSISRRKHRCRNCGHIFCNTCSSNELALPSYPKPVRVCDSCHTL here?
The abundance fitness was 0.151 ± 0.044.

With WLKDDEATHCRQCEKEFSISRRKHSCRNCGHIFCNTCSSNELALPSYPKPVRVCDSCHTL as the variant, how does the abundance fitness read?
The abundance fitness was 0.07 ± 0.034.

Which abundance fitness does the source give for WLKDDEATHCRQCEKEFSISRRKHMCRNCGHIFCNTCSSNELALPSYPKPVRVCDSCHTL here?
Its abundance fitness is 0.051 ± 0.037.

Which abundance fitness does the source give for WLKDDEATHCRQCEKEFSISRRKHACRNCGHIFCNTCSSNELALPSYPKPVRVCDSCHTL here?
The abundance fitness was 0.121 ± 0.045.

With WLKDDEATHCRQCEKEFSISRRKHWCRNCGHIFCNTCSSNELALPSYPKPVRVCDSCHTL as the variant, how does the abundance fitness read?
Its abundance fitness is 0.128 ± 0.053.

For WLKDDEATHCRQCEKEFSISRRKHCCRNCGHIFCNTCSSNELALPSYPKPVRVCDSCHTL, which abundance fitness is on record?
The abundance fitness was -0.169 ± 0.077.

With WLKDDEATHCRQCEKEFSISRRKHYCRNCGHIFCNTCSSNELALPSYPKPVRVCDSCHTL as the variant, how does the abundance fitness read?
Its abundance fitness is 0.097 ± 0.068.

For WLKDDEATHCRQCEKEFSISRRKHECRNCGHIFCNTCSSNELALPSYPKPVRVCDSCHTL, which abundance fitness is on record?
The abundance fitness was -0.02 ± 0.052.

For WLKDDEATHCRQCEKEFSISRRKHVCRNCGHIFCNTCSSNELALPSYPKPVRVCDSCHTL, which abundance fitness is on record?
Its abundance fitness is 0.044 ± 0.04.

For WLKDDEATHCRQCEKEFSISRRKHICRNCGHIFCNTCSSNELALPSYPKPVRVCDSCHTL, which abundance fitness is on record?
Its abundance fitness is -0.13 ± 0.1.

With WLKDDEATHCRQCEKEFSISRRKHKCRNCGHIFCNTCSSNELALPSYPKPVRVCDSCHTL as the variant, how does the abundance fitness read?
The abundance fitness was 0.012 ± 0.058.

Which abundance fitness does the source give for WLKDDEATHCRQCEKEFSISRRKHFCRNCGHIFCNTCSSNELALPSYPKPVRVCDSCHTL here?
The abundance fitness was -0.045 ± 0.091.

For WLKDDEATHCRQCEKEFSISRRKHTCRNCGHIFCNTCSSNELALPSYPKPVRVCDSCHTL, which abundance fitness is on record?
The abundance fitness was -0.118 ± 0.055.

For WLKDDEATHCRQCEKEFSISRRKHPCRNCGHIFCNTCSSNELALPSYPKPVRVCDSCHTL, which abundance fitness is on record?
The abundance fitness was -0.065 ± 0.043.

With WLKDDEATHCRQCEKEFSISRRKHNCRNCGHIFCNTCSSNELALPSYPKPVRVCDSCHTL as the variant, how does the abundance fitness read?
Its abundance fitness is -0.311 ± 0.081.

With WLKDDEATHCRQCEKEFSISYRKHHCRNCGHIFCNTCSSNELALPSYPKPVRVCDSCHTL as the variant, how does the abundance fitness read?
Its abundance fitness is -0.801 ± 0.16.

For WLKDDEATHCRQCEKEFSISRRPHHCRNCGHIFCNTCSSNELALPSYPKPVRVCDSCHTL, which abundance fitness is on record?
The abundance fitness was -0.494 ± 0.057.

With WLKDDEATHCRQCEKEFSISRRHHHCRNCGHIFCNTCSSNELALPSYPKPVRVCDSCHTL as the variant, how does the abundance fitness read?
The abundance fitness was -0.326 ± 0.077.

Which abundance fitness does the source give for WLKDDEATHCRQCEKEFSISRRSHHCRNCGHIFCNTCSSNELALPSYPKPVRVCDSCHTL here?
The abundance fitness was -0.189 ± 0.041.

With WLKDDEATHCRQCEKEFSISRRLHHCRNCGHIFCNTCSSNELALPSYPKPVRVCDSCHTL as the variant, how does the abundance fitness read?
The abundance fitness was -0.433 ± 0.039.

For WLKDDEATHCRQCEKEFSISRRFHHCRNCGHIFCNTCSSNELALPSYPKPVRVCDSCHTL, which abundance fitness is on record?
The abundance fitness was -0.362 ± 0.069.

With WLKDDEATHCRQCEKEFSISRRRHHCRNCGHIFCNTCSSNELALPSYPKPVRVCDSCHTL as the variant, how does the abundance fitness read?
Its abundance fitness is -0.069 ± 0.036.

With WLKDDEATHCRQCEKEFSISRRWHHCRNCGHIFCNTCSSNELALPSYPKPVRVCDSCHTL as the variant, how does the abundance fitness read?
Its abundance fitness is -0.243 ± 0.043.

Which abundance fitness does the source give for WLKDDEATHCRQCEKEFSISRRVHHCRNCGHIFCNTCSSNELALPSYPKPVRVCDSCHTL here?
Its abundance fitness is -0.257 ± 0.037.

For WLKDDEATHCRQCEKEFSISRRTHHCRNCGHIFCNTCSSNELALPSYPKPVRVCDSCHTL, which abundance fitness is on record?
Its abundance fitness is -0.204 ± 0.049.

For WLKDDEATHCRQCEKEFSISRRDHHCRNCGHIFCNTCSSNELALPSYPKPVRVCDSCHTL, which abundance fitness is on record?
The abundance fitness was -0.315 ± 0.081.
